Assay results: paper PMC12547689

What was measured:
[1] = target: GFP-diS1 (sfGFP H148C) (Aequorea victoria) [GFP: P42212]; experiment: fluorescence emission ratio (CRO–O^− : CRO–OH excitation); dimerisation kinetics with 1 mM CuSO4, 50 mM Tris–HCl pH 8, plate reader, excitation 388 nm and 483 nm, emission 516 nm; second order A + A → A2; apparent KD, estimated, non-equilibrium (covalent disulphide dimer); monomer to dimer
[2] = target: GFP-diS1 (sfGFP H148C) (Aequorea victoria) [GFP: P42212]; experiment: fluorescence emission ratio (CRO–O^− : CRO–OH excitation); percentage of dimer after incubation with CuSO4 (1 mM; CuCl2 gave no discernible change for GFP-diS2), 50 mM Tris–HCl pH 8; monomer to disulphide-linked dimer
[3] = target: GFP-diS2 (sfGFP H148C V206F) (Aequorea victoria) [GFP: P42212]; experiment: fluorescence emission ratio (CRO–O^− : CRO–OH excitation); dimerisation kinetics with 1 mM CuSO4, 50 mM Tris–HCl pH 8, plate reader, excitation 388 nm and 483 nm, emission 516 nm; second order A + A → A2; apparent KD, estimated, non-equilibrium (covalent disulphide dimer); monomer to dimer
[4] = target: GFP-diS2 (sfGFP H148C V206F) (Aequorea victoria) [GFP: P42212]; experiment: fluorescence emission ratio (CRO–O^− : CRO–OH excitation); percentage of dimer after incubation with CuSO4 (1 mM; CuCl2 gave no discernible change for GFP-diS2), 50 mM Tris–HCl pH 8; monomer to disulphide-linked dimer

Substance: GFP-diS1 (sfGFP H148C) (from UniProt P42212 1-238)
- Kd [1]: > 25 µM
- percent dimer after 1 h with CuSO4 [2]: 55%

Substance: GFP-diS2 (sfGFP H148C V206F) (from UniProt P42212 1-238)
- Kd [3]: 4.6 µM
- percent dimer with CuSO4 [4]: 80%
